Measurements taken from PMC10577085 (ACS infectious diseases, 2023).

Tests used:
[1] = biological target: SP-CHAP (uncultured virus); assay: SEC
[2] = biological target: Cpl-1 Δtail (bacteriophage Cp-1) (UniProt P15057); assay: AUC
Cpl-1 = Cpl-1 (Streptococcus phage Cp1, UniProt P15057); assay: analytical size exclusion chromatography; assay type: binding
[3] = biological target: SP-Amidase (uncultured virus); assay: SEC
[4] = biological target: SP-GH25 (uncultured virus); assay: SEC
SEC = biological target: the molecule itself; assay: SEC

Molecule | stoichiometry N (SEC) | other results
SP-CHAP (enzyme) |  | stoichiometry N [1]: 2
Cpl-1 Δtail (from UniProt P15057 1-323) (domain or fragment) |  | stoichiometry N [2]: 2
C[N+](C)(C)CCO [choline] |  | Kd (Cpl-1): ~5 mM
SP-Amidase (enzyme) |  | stoichiometry N [3]: 2
SP-GH25 (enzyme) |  | stoichiometry N [4]: 2
Cpl-1 DNP→AAA (enzyme, bacteriophage Cp-1, UniProt P15057 1-339, looked up) MVKKNDLFVDVSSHNGYDITGILEQMGTTNTIIKISESTTYLNPCLSAQVEQSNPIGFYHFARFGGDVAEAEREAQFFLDNVPMQVKYLVLDYEDDPSGDAQANTNACLRFMQMIADAGYKPIYYSYKPFTHDNVDYQQILAQFPNSLWIAGYGLNDGTANFEYFPSMDGIRWWQYSSNPFDKNIVLLDDEEDDKPKTAGTWKQDSKGWWFRRNNGSFPYNKWEKIGGVWYYFDSKGYCLTSEWLKDNEKWYYLKDNGAMATGWVLVGSEWYYMDDSGAMVTGWVKYKNNWYYMTNERGNMVSNEFIKSGKGWYFMNTNGELAAAASFTKEPDGLITVA | 2 | 
Cpl-1 W210A:F218A (enzyme, bacteriophage Cp-1, UniProt P15057 1-339, looked up) MVKKNDLFVDVSSHNGYDITGILEQMGTTNTIIKISESTTYLNPCLSAQVEQSNPIGFYHFARFGGDVAEAEREAQFFLDNVPMQVKYLVLDYEDDPSGDAQANTNACLRFMQMIADAGYKPIYYSYKPFTHDNVDYQQILAQFPNSLWIAGYGLNDGTANFEYFPSMDGIRWWQYSSNPFDKNIVLLDDEEDDKPKTAGTWKQDSKGWAFRRNNGSAPYNKWEKIGGVWYYFDSKGYCLTSEWLKDNEKWYYLKDNGAMATGWVLVGSEWYYMDDSGAMVTGWVKYKNNWYYMTNERGNMVSNEFIKSGKGWYFMNTNGELADNPSFTKEPDGLITVA | 2 | 
Cpl-1 F218A (enzyme, bacteriophage Cp-1, UniProt P15057 1-339, looked up) MVKKNDLFVDVSSHNGYDITGILEQMGTTNTIIKISESTTYLNPCLSAQVEQSNPIGFYHFARFGGDVAEAEREAQFFLDNVPMQVKYLVLDYEDDPSGDAQANTNACLRFMQMIADAGYKPIYYSYKPFTHDNVDYQQILAQFPNSLWIAGYGLNDGTANFEYFPSMDGIRWWQYSSNPFDKNIVLLDDEEDDKPKTAGTWKQDSKGWWFRRNNGSAPYNKWEKIGGVWYYFDSKGYCLTSEWLKDNEKWYYLKDNGAMATGWVLVGSEWYYMDDSGAMVTGWVKYKNNWYYMTNERGNMVSNEFIKSGKGWYFMNTNGELADNPSFTKEPDGLITVA | 2 | 
Cpl-1 W210A (enzyme, bacteriophage Cp-1, UniProt P15057 1-339, looked up) MVKKNDLFVDVSSHNGYDITGILEQMGTTNTIIKISESTTYLNPCLSAQVEQSNPIGFYHFARFGGDVAEAEREAQFFLDNVPMQVKYLVLDYEDDPSGDAQANTNACLRFMQMIADAGYKPIYYSYKPFTHDNVDYQQILAQFPNSLWIAGYGLNDGTANFEYFPSMDGIRWWQYSSNPFDKNIVLLDDEEDDKPKTAGTWKQDSKGWAFRRNNGSFPYNKWEKIGGVWYYFDSKGYCLTSEWLKDNEKWYYLKDNGAMATGWVLVGSEWYYMDDSGAMVTGWVKYKNNWYYMTNERGNMVSNEFIKSGKGWYFMNTNGELADNPSFTKEPDGLITVA | 2 | 
Cpl-1 KEP→AAA (enzyme, bacteriophage Cp-1, UniProt P15057 1-339, looked up) MVKKNDLFVDVSSHNGYDITGILEQMGTTNTIIKISESTTYLNPCLSAQVEQSNPIGFYHFARFGGDVAEAEREAQFFLDNVPMQVKYLVLDYEDDPSGDAQANTNACLRFMQMIADAGYKPIYYSYKPFTHDNVDYQQILAQFPNSLWIAGYGLNDGTANFEYFPSMDGIRWWQYSSNPFDKNIVLLDDEEDDKPKTAGTWKQDSKGWWFRRNNGSFPYNKWEKIGGVWYYFDSKGYCLTSEWLKDNEKWYYLKDNGAMATGWVLVGSEWYYMDDSGAMVTGWVKYKNNWYYMTNERGNMVSNEFIKSGKGWYFMNTNGELADNPSFTAAADGLITVA | 2 | 
Cpl-1 F218A:Y238A (enzyme, bacteriophage Cp-1, UniProt P15057 1-339, looked up) MVKKNDLFVDVSSHNGYDITGILEQMGTTNTIIKISESTTYLNPCLSAQVEQSNPIGFYHFARFGGDVAEAEREAQFFLDNVPMQVKYLVLDYEDDPSGDAQANTNACLRFMQMIADAGYKPIYYSYKPFTHDNVDYQQILAQFPNSLWIAGYGLNDGTANFEYFPSMDGIRWWQYSSNPFDKNIVLLDDEEDDKPKTAGTWKQDSKGWWFRRNNGSAPYNKWEKIGGVWYYFDSKGACLTSEWLKDNEKWYYLKDNGAMATGWVLVGSEWYYMDDSGAMVTGWVKYKNNWYYMTNERGNMVSNEFIKSGKGWYFMNTNGELADNPSFTKEPDGLITVA | 2 | 
Cpl-1 W210A:F218A:Y238A triple mutant (enzyme, bacteriophage Cp-1, UniProt P15057 1-339, looked up) MVKKNDLFVDVSSHNGYDITGILEQMGTTNTIIKISESTTYLNPCLSAQVEQSNPIGFYHFARFGGDVAEAEREAQFFLDNVPMQVKYLVLDYEDDPSGDAQANTNACLRFMQMIADAGYKPIYYSYKPFTHDNVDYQQILAQFPNSLWIAGYGLNDGTANFEYFPSMDGIRWWQYSSNPFDKNIVLLDDEEDDKPKTAGTWKQDSKGWAFRRNNGSAPYNKWEKIGGVWYYFDSKGACLTSEWLKDNEKWYYLKDNGAMATGWVLVGSEWYYMDDSGAMVTGWVKYKNNWYYMTNERGNMVSNEFIKSGKGWYFMNTNGELADNPSFTKEPDGLITVA | 2 | 
Cpl-1 Y238A (enzyme, bacteriophage Cp-1, UniProt P15057 1-339, looked up) MVKKNDLFVDVSSHNGYDITGILEQMGTTNTIIKISESTTYLNPCLSAQVEQSNPIGFYHFARFGGDVAEAEREAQFFLDNVPMQVKYLVLDYEDDPSGDAQANTNACLRFMQMIADAGYKPIYYSYKPFTHDNVDYQQILAQFPNSLWIAGYGLNDGTANFEYFPSMDGIRWWQYSSNPFDKNIVLLDDEEDDKPKTAGTWKQDSKGWWFRRNNGSFPYNKWEKIGGVWYYFDSKGACLTSEWLKDNEKWYYLKDNGAMATGWVLVGSEWYYMDDSGAMVTGWVKYKNNWYYMTNERGNMVSNEFIKSGKGWYFMNTNGELADNPSFTKEPDGLITVA | 2 | 
